Measurements reported in the supplement of paper PMC9170038.

Columns and labels:
[1] = system: MS2 coat protein; assay: apparent KD of MS2 coat protein; higher = weaker reporter binding; details: Eterna round: R107
Experimental: (§1)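 RNA-MaP round R107: designed RNA switches with theophylline, tryptophan, arginine or FMN aptamers are transcribed on-chip within common flanks. They are titrated with SNAP-549-labelled MS2 coat protein in RNA-MaP buffer (100 mM Tris pH 7.5, 80 mM KCl, 4 mM MgCl2), without ligand or with the indicated ligand. Median apparent KD per design.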

[2] = system: K4 kissing-loop RNA reporter; assay: apparent KD of K4 kissing-loop reporter; higher = weaker reporter binding; details: Eterna round: R107;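 also: bound reporter read as fluorescence of individual clusters on recovered sequencing chips by microscopy, with normalized cluster intensities fitted with a binding model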
Experimental: as §1, with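 “a labelled K4 kissing-loop RNA reporter” for “SNAP-549-labelled MS2 coat protein”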

[3] = input ligand: theophylline 20 uM
[4] = input ligand: tryptophan 2.4 mM

Sequence | apparent KD of MS2 coat protein ([1]; input ligand: arginine 13.2 mM) | apparent KD of MS2 coat protein [1, 3] | apparent KD of MS2 coat protein [1, 4] | apparent KD of K4 kissing-loop reporter ([2]; input ligand: FMN 200 uM) | apparent KD of K4 kissing-loop reporter ([2]; input ligand: arginine 13.2 mM) | apparent KD of K4 kissing-loop reporter ([2]; input ligand: none) | apparent KD of K4 kissing-loop reporter [2, 3] | apparent KD of K4 kissing-loop reporter [2, 4]
AACCGAGGCUAUCCUCUCCGACUAUGUGAUACCAGAAUAAUUUUAUUCCCUUGGCAGCAUGACAUGAGGAUCACCCAUGUCUCUU [SSTheo A #10] | 16 nM | 18 nM | 15.9 nM |  |  |  |  | 
UUGCGGAGUGAUGUUUCGGGAUAUCGGGAAGGAGCGCCGAUAACGGCAGGUAGGUCGCCCGGUCCAGUGAUGUUGGGCAUGCAUU [Exclusion Arg A GF 23] |  |  |  | 200 nM | 136 nM | 212 nM | 201 nM | 171 nM
UUGGCAGUGAUGUUGCCAGACAUCACCGAAGGAGCGGGCGAAAGCCCAGGUAGGUCGCGGUAGCGGAGUGAUUCUCCGCGAGGGC [Same State Arginine A GF 23] |  |  |  | 957 nM | 621 nM | 937 nM | 759 nM | 829 nM
UUUAAAUAUAGUGAUGUUAUAUAACAAUGACGAGGACCGGUACGGCCGCCACUCGAGAGAGAUAAUGGUCGUUCGAAUCGAACGC [AstrosSSTryA#6] |  |  |  | 599 nM | 779 nM | 672 nM | 574 nM | 410 nM
UUUAUAUAGUCGGCCGCCACUGAUUUUUUUAUAUGUUUAUGUUUAUACGAGUGAUGUUCGAUAUACAGGACCGGGACUUUGGUUA [JR_SSTryptoB_Sub019] |  |  |  | 145 nM | 207 nM | 159 nM | 224 nM | 115 nM
UUUAUAUAGUCGGCCGCCACUGGAUUAAUAUUUGUAUAAUCUAGAUCAAAGUGAUGUUUUGAGUCCAGGACCGGGACAUUUGUUA [JR_ExcTryptoB_Sub006] |  |  |  | 539 nM | 391 nM | 486 nM | 525 nM | 427 nM
UUUAUAUUCUGAGGAUAUCGUAUUAAUGAAGUGAUGUUUCAGUAUAUUCUAAUUAUAUAUAAUUUUCGAGAAGGCAGUAUUAUUU [JR_Nu3_SSFMNB_Sub028] |  |  |  | 187 nM | 243 nM | 246 nM | 320 nM | 196 nM
UUUCGUUUCGUCUGACAUAAUUGGCUAGAAGGAGCGGUAAAAUUACCAGGUAGGUCGCUAGCCCAGUGAUGUUGGGACUAGCGUA [Edries] |  |  |  | 124 nM | 107 nM | 114 nM | 116 nM | 125 nM
UUUCUAUCGGGAAGGAGCGUGAAUGAUAAUGGAUAUAGUGAUGUUAUAUAUAAGAACGAAUCGCAGGUAGGUCGCCCGGAUGACU [SSArgB.R] |  |  |  | 346 nM | 357 nM | 323 nM | 389 nM | 169 nM
UUUGGAGAGGGAAGGAGCGUGAAAGAGAAAGAAUAUAGUGAUGUUAUAUAGAAGAAAGAAUCACAGGUAGGUCGCCCGGAGGAGG [SSArgB.D] |  |  |  | 707 nM | 865 nM | 661 nM | 990 nM | 575 nM
UUUGUAUAGGGAAGGAGCGUGAAUGAUAAUGAAUAUAGUGAUGUUAUAUAUAAGAAAGAAUCACAGGUAGGUCGCCCGGAUGAGU [SSArgB.L] |  |  |  | 432 nM | 323 nM | 477 nM | 447 nM | 356 nM
UUUUGCUAGCGAAACGCUAGCUUAACAGAUACCAGUCGCGAAAGCGACCCUUGGCAGCUGCUGAGUGAUGUUCAGGUGAGAGUUA |  |  |  | 387 nM | 221 nM | 344 nM | 301 nM | 312 nM
UUUUUGGUUUAGAGUGAUGUUCCUUGUAUUCGAGGACCGGUACGGCCGCCACUCGAAUAGAAAAGAAAAGAAAAGAGUGAUGUUU [BDazzled - #3 SS Tryptophan A] |  |  |  | 308 nM | 229 nM | 292 nM | 356 nM | 252 nM
